Literature values, collected in patent US20240024427A1, “METHOD OF REDUCING INTRAOCULAR PRESSURE” (INVEX THERAPEUTICS LTD, priority 2020, published 2024).
Like-named read-outs stand apart in the source and are kept apart here.

Tests used:
[1] = conscious rat model, dosed subcutaneously, immediate release formulation

Row | Substance | Mean plasma terminal half-life (per SmPC) | further results
1 | Albiglutide | Approximately 5 days | –
2 | Dulaglutide | 108 to 113 h | –
3 | Lixisenatide | – | Mean plasma terminal half-life (per SmPC or FDA product label): Approximately 3 hours
4 | Semaglutide | Approximately 1 week | –
5 | exendin-4 | – | effect on intracranial pressure (ICP) compared to a saline control [1]: reduced ICP
